According to patent publication US20240343800A1 (Merck KGaA, published 2024):
Changes are numbered by the printed parent chain.

B1: 82H02 VL1.09 (bispecific TCE of Table 29) (bispecific antibody, V domains shown)
VH: EVQLLESGGGLVQPGGSLRLSCAASGFTFTSYAMSWVRQAPGKGLEWVSTISGSGGGTYYTDSVKGRFTISRDNSKNTLYLQMNSLRAEDTAVYYCAQGSSIFDYWGQGTLVTVSS
VL: EIVLTQSPATLSLSPGERATLSCRASQSVSSYLAWYQQKPGQAPRLLIYDASNRATGIPARFSGSGSGTDFTLTISSLEPEDFAVYYCQQRSNWPPVTFGQGTRLEIK
notes: also called 82H02 v1.09
B2: 82H02 TCE #1 (sequence optimized 82H02 bispecific TCE in Format 1A, high ROR1 / high CD3 affinity) (bispecific antibody)
heavy 1: EVQLVESGGGLVQPGGSLKLSCAASGFTFNTYAMNWVRQASGKGLEWVGRIRSKYNNYATYYADSVKGRFTISRDDSKNTLYLQMNSLKTEDTAVYYCVRHGNFGASYVSWFAYWGQGTMVTVSSASTKGPSVFPLAPSSKSTSGGTAALGCLVKDYFPEPVTVSWNSGALTSGVHTFPAVLQSSGLYSLSSVVTVPSSSLGTQTYICNVNHKPSNTKVDKKVEPKSCDKTHTCPPCPAPEAAGGPSVFLFPPKPKDTLMISRTPEVTCVVVDVSHEDPEVKFNWYVDGVEVHNAKTKPREEQYNSTYRVVSVLTVLHQDWLNGKEYKCKVSNKALGAPIEKTISKAKGQPFRPEVHLLPPSREEMTKNQVSLTCLARGFYPKDIAVEWESNGQPENNYKTTPSRQEPSQGTTTFAVTSKLTVDKSRWQQGNVFSCSVMHEALHNHYTQKTISLSPGK
heavy 2: EIVLTQSPATLSLSPGERATLSCRASQSVSSYLAWYQQKPGQAPRLLIYDASNRATGIPARFSGSGSGTDFTLTISSLEPEDFAVYYCQQRSNWPPSTFGQGTRLEIKGGGGSGGGGSGGGGSGGGGSEVQLLESGGGLVQPGGSLRLSCAASGFTFTSYAMSWVRQAPGKGLEWVSTISGSGGGTYYTDSVKGRFTISRDNSKNTLYLQMNSLRAEDTAVYYCAQGSSIFDYWGQGTLVTVSSEPKSSDKTHTCPPCPAPEAAGGPSVFLFPPKPKDTLMISRTPEVTCVVVDVSHEDPEVKFNWYVDGVEVHNAKTKPREEQYNSTYRVVSVLTVLHQDWLNGKEYKCKVSNKALGAPIEKTISKAKGQPREPQVYTLPPPSEELALNELVTLTCLVKGFYPSDIAVEWLQGSQELPREKYLTWAPVLDSDGSFFLYSILRVAAEDWKKGDTFSCSVMHEALHNHYTQKSLDRSPGKGGGGSGGGGSGGGGSGGGGSEIVLTQSPATLSLSPGERATLSCRASQSVSSYLAWYQQKPGQAPRLLIYDASNRATGIPARFSGSGSGTDFTLTISSLEPEDFAVYYCQQRSNWPPSTFGQGTRLEIKGGGGSGGGGSGGGGSGGGGSEVQLLESGGGLVQPGGSLRLSCAASGFTFTSYAMSWVRQAPGKGLEWVSTISGSGGGTYYTDSVKGRFTISRDNSKNTLYLQMNSLRAEDTAVYYCAQGSSIFDYWGQGTLVTVSS
light: QAVVTQEPSLTVSPGGTVTLTCRSSTGAVTTSNYANWVQQKPGQAPRGLIGGTNKRAPGTPARFSGSLLGGKAALTLSGVQPEDEAEYYCALWYSNLWVFGGGTKLTVLGQPKAAPSVTLFPPSSEELQANKATLVCLISDFYPGAVTVAWKADSSPVKAGVETTTPSKQSNNKYAASSYLSLTPEQWKSHRSYSCQVTHEGSTVEKTVAPTECS
notes: also called 82H02 #1; 82H02 VL1.07x1F3.5-VH1.03
B3: 82H02 TCE #2 (sequence optimized 82H02 bispecific TCE in Format 1A, high ROR1 / low CD3 affinity) (bispecific antibody)
heavy 1: B2 heavy 1 with A106N
heavy 2: B2 heavy 2
light: B2 light with A2T, R23A, G48A
notes: also called 82H02 #2; 82H02 VL1.07x1F3.5-VH1.01-VL1.01

Columns and labels:
[1] = biological target: T1, recombinant human ROR1 extracellular domain protein (human, UniProt Q01973 30-406); assay: biolayer interferometry, TCE immobilized
T1 construct: also called Human/Cyno ROR1
Description: This example describes biolayer interferometry experiments that were used to determine the binding affinities of bispecific TCEs and sequence optimized variants of the present disclosure.

human ROR1 (on cells) [2] = biological target: T2, human ROR1 (on cells) (human, UniProt Q01973 30-937); assay: cell-based or functional assay
human ROR1 (on cells) [3] = biological target: T2, human ROR1 (on cells); assay: cell-based or functional assay; remark: listed apart in the source
human ROR1 (on cells) [4] = biological target: T2, human ROR1 (on cells); assay: cell-based or functional assay; remark: listed apart in the source
human ROR1 (on cells) [5] = biological target: T2, human ROR1 (on cells); assay: cell-based or functional assay; remark: listed apart in the source
[6] = biological target: T3, mouse ROR1 (on 4T1 cells engineered to overexpress it) (mouse, UniProt Q9Z139 30-937); assay: flow cytometry; reference: human ROR1 on MDA-MB-231 cells
T3 construct: whole, on cells; also called muROR1; mROR1

human ROR1 (on cells) [7] = biological target: T2, human ROR1 (on cells); assay: flow cytometry, ROR1+ MDA-MB-231 cells
Experimental: (§1) After 15-minutes of incubation at room temperature, the cells were washed twice with 200 μL of PBS by centrifugation at 500×g for 5 minutes at room temperature and resuspended in […] of 10% goat serum in BD staining buffer (BD Biosciences, Cat No: 554657). […] The plates were then covered with foil to avoid direct light and incubated for 60 minutes at 4° C. […] After incubating for 30 minutes at 4° C., the cells were washed twice with 200 μL of PBS by centrifugation at 500×g for 5 minutes at room temperature and resuspended into 100 μL of fixation buffer (BioLegend, Cat No: 420801). The samples were then analyzed on a flow cytometer for binding signal using FlowJo software. ROR and CD3 binding EC₅₀s (concentration vs mean fluorescence intensity (MFI)) for reference molecules and test bispecific TCEs were obtained using 4-parameter non-linear regression curve fitting in GraphPad Prism.

[8] = biological target: T4, human CD3 (on Jurkat T cells or human CD8+ T cells) (human, UniProt P07766 23-207; P09693 23-182; P04234 22-171; P20963 22-164); assay: flow cytometry, human CD8+ T cells
T4 construct: Entries are printed with signal peptides; also called huCD3; CD3ε
T4 sequence (P07766 23-207 limits assumed, chain 1 of 4): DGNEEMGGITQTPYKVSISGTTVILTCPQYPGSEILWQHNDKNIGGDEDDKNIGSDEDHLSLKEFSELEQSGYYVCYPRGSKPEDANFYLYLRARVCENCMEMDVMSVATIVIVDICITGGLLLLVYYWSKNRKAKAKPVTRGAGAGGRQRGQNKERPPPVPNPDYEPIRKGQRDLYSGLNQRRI
T4 sequence (P09693 23-182 limits assumed, chain 2 of 4): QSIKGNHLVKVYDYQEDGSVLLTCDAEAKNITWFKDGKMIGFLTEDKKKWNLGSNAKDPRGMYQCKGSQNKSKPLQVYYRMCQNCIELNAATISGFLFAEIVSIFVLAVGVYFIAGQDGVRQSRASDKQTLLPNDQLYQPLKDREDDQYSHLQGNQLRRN
T4 sequence (P04234 22-171 limits assumed, chain 3 of 4): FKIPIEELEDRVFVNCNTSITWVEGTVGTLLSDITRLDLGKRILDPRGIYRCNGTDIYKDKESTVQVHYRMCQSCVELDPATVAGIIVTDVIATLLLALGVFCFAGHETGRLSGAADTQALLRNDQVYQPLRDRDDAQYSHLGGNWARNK
T4 sequence (P20963 22-164 limits assumed, chain 4 of 4): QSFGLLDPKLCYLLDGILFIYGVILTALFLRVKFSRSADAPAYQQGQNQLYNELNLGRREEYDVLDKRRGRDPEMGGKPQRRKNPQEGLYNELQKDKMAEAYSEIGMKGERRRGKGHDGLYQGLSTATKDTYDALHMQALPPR
Experimental: as §1

[9] = biological target: T3, mouse ROR1 (on 4T1 cells engineered to …); assay: flow cytometry, 4T1 cells overexpressing mouse ROR1
Experimental: as §1

[10] = biological target: T5, cynomolgus CD3 (on cynomolgus pan-T cells) (cynomolgus, UniProt Q95LI5 22-198); assay: flow cytometry, cynomolgus pan-T cells
T5 construct: whole, on cells
T5 sequence (Q95LI5 22-198): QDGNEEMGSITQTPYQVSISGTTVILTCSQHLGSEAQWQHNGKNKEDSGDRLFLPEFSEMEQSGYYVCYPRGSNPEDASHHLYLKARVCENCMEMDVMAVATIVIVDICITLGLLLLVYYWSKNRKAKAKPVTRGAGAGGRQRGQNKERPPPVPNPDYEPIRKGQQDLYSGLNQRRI
Experimental: as §1

Row | Binder | TDCC AUC, PBMCs: MDA-MB-231-0.2 (human ROR1 (on cells) [2]) | TDCC AUC, PBMCs: MDA-MB-231-0.4 (human ROR1 (on cells) [2]) | TDCC AUC, PBMCs: MDA-MB-231-0.6 (human ROR1 (on cells) [2]) | TDCC AUC, PBMCs: MDA-MB-231-1.3 (human ROR1 (on cells) [2]) | TDCC AUC, PBMCs: MDA-MB-231-7 (human ROR1 (on cells) [2]) | TDCC EC50, PBMCs: MDA-MB-231-0.2 (human ROR1 (on cells) [2]) [nM] | TDCC EC50, PBMCs: MDA-MB-231-0.4 (human ROR1 (on cells) [2]) [nM] | TDCC EC50, PBMCs: MDA-MB-231-0.6 (human ROR1 (on cells) [2]) [nM] | TDCC EC50, PBMCs: MDA-MB-231-1.3 (human ROR1 (on cells) [2]) [nM] | TDCC EC50, PBMCs: MDA-MB-231-7 (human ROR1 (on cells) [2]) [nM] | TDCC Emax, PBMCs: MDA-MB-231-0.2 (human ROR1 (on cells) [2]) [%] | TDCC Emax, PBMCs: MDA-MB-231-0.4 (human ROR1 (on cells) [2]) [%] | TDCC Emax, PBMCs: MDA-MB-231-0.6 (human ROR1 (on cells) [2]) [%] | TDCC Emax, PBMCs: MDA-MB-231-1.3 (human ROR1 (on cells) [2]) [%] | TDCC Emax, PBMCs: MDA-MB-231-7 (human ROR1 (on cells) [2]) [%] | TDCC EC50, PBMCs: MDA-MB-231 (human ROR1 (on cells) [3]) [nM] | IFNγ release EC50, PBMCs: MDA-MB-231 (human ROR1 (on cells) [4]) [nM] | Max IFNγ, PBMCs: MDA-MB-231 (human ROR1 (on cells) [4]) [pg/mL] | IFNγ release AUC, PBMCs: MDA-MB-231-0.2 (human ROR1 (on cells) [5]) | IFNγ release AUC, PBMCs: MDA-MB-231-0.4 (human ROR1 (on cells) [5]) | also measured
1 | B1 | – | – | – | – | – | – | – | – | – | – | – | – | – | – | – | – | – | – | – | – | Kd [1]: 160 nM
2 | B2 | 39000 | 50200 | 57100 | 64800 | 74200 | 0.0119 | 0.0103 | 0.01 | 0.00703 | 0.00433 | 40.7 | 52.2 | 60.2 | 66.5 | 75.8 | 24.6 | 205 | 1120 | 2.09e+06 | 2.43e+06 | IFNγ release AUC, PBMCs: MDA-MB-231-0.6 (human ROR1 (on cells) [5]): 3.15e+06; IFNγ release AUC, PBMCs: MDA-MB-231-1.3 (human ROR1 (on cells) [5]): 4.93e+06; IFNγ release AUC, PBMCs: MDA-MB-231-7 (human ROR1 (on cells) [5]): 5.16e+06; IFNγ release EC50, PBMCs: MDA-MB-231-0.2 (human ROR1 (on cells) [5]): 0.143 nM; IFNγ release EC50, PBMCs: MDA-MB-231-0.4 (human ROR1 (on cells) [5]): 0.123 nM; IFNγ release EC50, PBMCs: MDA-MB-231-0.6 (human ROR1 (on cells) [5]): 0.0803 nM; IFNγ release EC50, PBMCs: MDA-MB-231-1.3 (human ROR1 (on cells) [5]): 0.0243 nM; IFNγ release EC50, PBMCs: MDA-MB-231-7 (human ROR1 (on cells) [5]): 0.0204 nM; IFNγ release Emax, PBMCs: MDA-MB-231-0.2 (human ROR1 (on cells) [5]): 2860%; IFNγ release Emax, PBMCs: MDA-MB-231-0.4 (human ROR1 (on cells) [5]): 3050%; IFNγ release Emax, PBMCs: MDA-MB-231-0.6 (human ROR1 (on cells) [5]): 3980%; IFNγ release Emax, PBMCs: MDA-MB-231-1.3 (human ROR1 (on cells) [5]): 5260%; IFNγ release Emax, PBMCs: MDA-MB-231-7 (human ROR1 (on cells) [5]): 5420%; fold difference in apparent ROR1 binding affinity between human and mouse ROR1 [6]: ~3 fold; EC50 (human ROR1 (on cells) [7]): 0.81 nM; EC50 [8]: 2.8 nM; EC50 [9]: 2.19 nM; EC50 [10]: 4.1 nM
3 | B3 | 35700 | 47600 | 54100 | 63700 | 72000 | 0.0137 | 0.0125 | 0.0105 | 0.00896 | 0.0047 | 37.5 | 50.2 | 56.8 | 65.4 | 74.1 | 43.9 | 265 | 1000 | 1.55e+06 | 2.03e+06 | IFNγ release AUC, PBMCs: MDA-MB-231-0.6 (human ROR1 (on cells) [5]): 9.77e+06; IFNγ release AUC, PBMCs: MDA-MB-231-1.3 (human ROR1 (on cells) [5]): 4.49e+06; IFNγ release AUC, PBMCs: MDA-MB-231-7 (human ROR1 (on cells) [5]): 4.68e+06; IFNγ release EC50, PBMCs: MDA-MB-231-0.2 (human ROR1 (on cells) [5]): 0.192 nM; IFNγ release EC50, PBMCs: MDA-MB-231-0.4 (human ROR1 (on cells) [5]): 0.151 nM; IFNγ release EC50, PBMCs: MDA-MB-231-0.6 (human ROR1 (on cells) [5]): 0.0977 nM; IFNγ release EC50, PBMCs: MDA-MB-231-1.3 (human ROR1 (on cells) [5]): 0.0306 nM; IFNγ release EC50, PBMCs: MDA-MB-231-7 (human ROR1 (on cells) [5]): 0.0265 nM; IFNγ release Emax, PBMCs: MDA-MB-231-0.2 (human ROR1 (on cells) [5]): 2270%; IFNγ release Emax, PBMCs: MDA-MB-231-0.4 (human ROR1 (on cells) [5]): 2670%; IFNγ release Emax, PBMCs: MDA-MB-231-0.6 (human ROR1 (on cells) [5]): 3670%; IFNγ release Emax, PBMCs: MDA-MB-231-1.3 (human ROR1 (on cells) [5]): 4850%; IFNγ release Emax, PBMCs: MDA-MB-231-7 (human ROR1 (on cells) [5]): 4970%; fold difference in apparent ROR1 binding affinity between human and mouse ROR1 [6]: ~3 fold; EC50 (human ROR1 (on cells) [7]): 0.72 nM; EC50 [8]: 19.8 nM; EC50 [9]: 2.24 nM; EC50 [10]: 26.2 nM
